Drawing on patent US20260327324 (published 2026), this text covers Kd for 18 molecules.

The Kd is the constant that tells how readily two partners part at equilibrium. Higher therefore signals weaker binding.

The labels stand for the following.
T1: MSLN (UniProt Q13421)
T1 chain: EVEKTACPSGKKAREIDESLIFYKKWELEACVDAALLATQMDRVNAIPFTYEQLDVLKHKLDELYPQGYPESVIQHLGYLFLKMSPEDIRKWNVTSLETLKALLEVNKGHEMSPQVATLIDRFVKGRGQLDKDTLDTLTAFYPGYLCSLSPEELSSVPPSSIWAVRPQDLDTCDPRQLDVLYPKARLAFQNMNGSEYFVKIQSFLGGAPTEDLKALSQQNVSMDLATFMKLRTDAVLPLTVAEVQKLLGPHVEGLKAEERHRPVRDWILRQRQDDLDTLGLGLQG

B1: PRO3735 (55-38-D07-sc02 A67G_S68G) (antibody)
chain: DVQMTQSPSSLSASVGDRVTITCRASENIYSGLAWYQQKPGKPPKLLIYRGGTLASGVSSRFSGSGSGTDFTLTISSLQPEDFATYYCQGGYYSSSSTYIAFGTGTKVTVLGGGGGSGGGGSGGGGSGGGGSQSQVVESGGGLVQPGGSLRLSCAVSGFDLSSYAVSWVRQAPGKGLEWIGIIYPRANTYYASWAKGRFTISKDNSKNTVYLQMNSLRAEDTAVYFCARDRYDSGAYLYTTYFNLWGQGTLVTVSS
B2: PRO4139 (55-38-D07-sc09 A67G_S68G) (antibody)
chain: DVQMTQSPSSLSASVGDRVTITCRASENIYSGLAWYQQKPGKPPKLLIYRGGTLASGVSSRFSGSGSGTDFTLTISSLQPEDFATYYCQGGYYSSSSTYIAFGTGTKVTVLGGGGGSGGGGSGGGGSGGGGSQSVVESGGGLVQPGGSLRLSCAVSGFDLSSYAVSWVRQAPGKGLEWIGIIYPRANTYYASWAKGRFTISKDNSKNTVYLQMNSLRAEDSAVYFCARDRYDSGAYLYTTYFNLWGQGTLVKVSS
B3: PRO4143 (55-38-D07-sc09 G51C A67G_S68G_T141C) (antibody)
chain: DVQMTQSPSSLSASVGDRVTITCRASENIYSGLAWYQQKPGKPPKLLIYRGGTLASGVSSRFSGSGSGTDFTLTISSLQPEDFATYYCQGGYYSSSSTYIAFGCGTKVTVLGGGGGSGGGGSGGGGSGGGGSQSVVESGGGLVQPGGSLRLSCAVSGFDLSSYAVSWVRQAPGKCLEWIGIIYPRANTYYASWAKGRFTISKDNSKNTVYLQMNSLRAEDSAVYFCARDRYDSGAYLYTTYFNLWGQGTLVKVSS
B4: PRO4135 (55-38-D07-sc09) (antibody)
chain: DVQMTQSPSSLSASVGDRVTITCRASENIYSGLAWYQQKPGKPPKLLIYRASTLASGVSSRFSGSGSGTDFTLTISSLQPEDFATYYCQGGYYSSSSTYIAFGTGTKVTVLGGGGGSGGGGSGGGGSGGGGSQSVVESGGGLVQPGGSLRLSCAVSGFDLSSYAVSWVRQAPGKGLEWIGIIYPRANTYYASWAKGRFTISKDNSKNTVYLQMNSLRAEDSAVYFCARDRYDSGAYLYTTYFNLWGQGTLVKVSS
B5: PRO2060 (55-38-D07-sc02) (antibody)
chain: VQMTQSPSSLSASVGDRVTITCRASENIYSGLAWYQQKPGKPPKLLIYRASTLASGVSSRFSGSGSGTDFTLTISSLQPEDFATYYCQGGYYSSSSTYIAFGTGTKVTVLGGGGGSGGGGSGGGGSGGGGSQSQVVESGGGLVQPGGSLRLSCAVSGFDLSSYAVSWVRQAPGKGLEWIGIIYPRANTYYASWAKGRFTISKDNSKNTVYLQMNSLRAEDTAVYFCARDRYDSGAYLYTTYFNLWGQGTLVTVSS
B6: PRO2062 (55-39-G02-sc02) (antibody)
chain: AQQLTQSPSSLSASVGDRVTITCQASQNVWNNNYLSWFQQKPGKPPKLLIVTASTLASGVSSRFSGSGSGTDFTLTISSLQPEDFATYYCAGGFSGEIRAFGTGTKVTVLGGGGGSGGGGSGGGGSGGGGSQSQLVESGGGLVQPGGSLRLSCAVSGLSLSRNAMSWVRQAPGKGLEWIGIILTSGSTYYASWAKGRFTISKDNSKNTVYLQMNSLRAEDTAVYFCVRGIASSSLKSFWGQGTLVTVSS
B7: PRO3734 (55-39-G02-sc02 A67G_S68G) (antibody)
chain: AQQLTQSPSSLSASVGDRVTITCQASQNVWNNNYLSWFQQKPGKPPKLLIVTGGTLASGVSSRFSGSGSGTDFTLTISSLQPEDFATYYCAGGFSGEIRAFGTGTKVTVLGGGGGSGGGGSGGGGSGGGGSQSQLVESGGGLVQPGGSLRLSCAVSGLSLSRNAMSWVRQAPGKGLEWIGIILTSGSTYYASWAKGRFTISKDNSKNTVYLQMNSLRAEDTAVYFCVRGIASSSLKSFWGQGTLVTVSS
B8: PRO3733 (54-32-A07-sc06 G51C_T141C A67G_S68G) (antibody)
chain: ALQMTQSPSSLSARVGDRVTIKCQASQSISNYLAWYQQKPGKPPKFLIYDGGDLASGVPSRFSGSGSGRDFTLTISSLQPEDFATYYCQQVYDSNNVENVFGCGTKVTVLGGGGGSGGGGSGGGGSGGGGSQSQLVESGGGLVQPGGSLRLSCAVSGFSLSSYAMGWVRQAPGKCLEYIGYISKIGTTYYASWAKGRFTISKDNSKNTVYLQMNSLRAEDTAVYFCARGSSSGGYLDDGFDPWGQGTLVTVSS
B9: PRO2309 (54-32-A07-sc06 G51C_T141C) (antibody)
chain: ALQMTQSPSSLSARVGDRVTIKCQASQSISNYLAWYQQKPGKPPKFLIYDASDLASGVPSRFSGSGSGRDFTLTISSLQPEDFATYYCQQVYDSNNVENVFGCGTKVTVLGGGGGSGGGGSGGGGSGGGGSQSQLVESGGGLVQPGGSLRLSCAVSGFSLSSYAMGWVRQAPGKCLEYIGYISKIGTTYYASWAKGRFTISKDNSKNTVYLQMNSLRAEDTAVYFCARGSSSGGYLDDGFDPWGQGTLVTVSS
B10: PRO3732 (54-21-H03-sc01 A67G_S68G) (antibody)
chain: DIQMTQSPSSLSASVGDRVTITCQASESIYSSLAWYQQKPGKAPKLLIYLGGTLASGVPSRFSGSGSGTDFTLTISSLQPEDFATYYCQSTDYTTSTHRNSFGTGTKVTVLGGGGGSGGGGSGGGGSGGGGSEVQLVESGGGLVQPGGSLRLSCAASGFSFSTTYYMCWVRQAPGKGLEWIGCTNTASSVRTYYATWAKGRFTISRDNSKNTVYLQMNSLRAEDTAVYYCARDMGFADYALNLWGQGTLVTVSS
B11: PRO1922 (54-21-H03-sc01) (antibody)
chain: DIQMTQSPSSLSASVGDRVTITCQASESIYSSLAWYQQKPGKAPKLLIYLASTLASGVPSRFSGSGSGTDFTLTISSLQPEDFATYYCQSTDYTTSTHRNSFGTGTKVTVLGGGGGSGGGGSGGGGSGGGGSEVQLVESGGGLVQPGGSLRLSCAASGFSFSTTYYMCWVRQAPGKGLEWIGCTNTASSVRTYYATWAKGRFTISRDNSKNTVYLQMNSLRAEDTAVYYCARDMGFADYALNLWGQGTLVTVSS
B12: PRO4112 (19-04-A10-sc11) (antibody)
chain: AFQLTQSPSSLSASVGDRVTITCQASESINSRLAWYQQKPGKPPKLLIYDASDLTSGVPSRFSGRGSGTDFTLTISSLQPEDFATYYCQGYGGSSTTTFGCGTKVTVLGGGGGSGGGGSGGGGSGGGGSQQLVESGGGLVQPGGSLRLSCAASGFSLSSYAMNWVRQAPGKCLEWIGHINAGDIAYYATWAKGRFTISKDNSKNTVYLQMNNLRAEDSAVYFCARGAGGFSTGPFKLWGQGTLVKVSS
B13: PRO4113 (19-04-A10-sc12) (antibody)
chain: AFQLTQSPSSLSASVGDRVTITCQASESINSRLAWYQQKPGKPPKLLIYDASDLTSGVPSRFSGRGSGTDFTLTISSLQPEDFATYYCQGYGGSSTTTFGCGTKVTVLGGGGGSGGGGSGGGGSGGGGSQSVVESGGGLVQPGGSLRLSCAASGFSLSSYAMNWVRQAPGKCLEWIGHINAGDIAYYATWAKGRFTISKDNSKNTVYLQMNSLRAEDSAVYFCARGAGGFSTGPFKLWGQGTLVKVSS
B14: PRO2155 (19-04-A10-sc02) (antibody)
chain: AFELTQSPSSLSASVGDRVTITCQASESINSRLAWYQQKPGQPPKLLIYDASDLTSGVPSRFSGSGSGTDFTLTISSLQPEDFATYYCQGYGGSSTTTFGGGTKLTVLGGGGGSGGGGSGGGGSGGGGSEVQLVESGGGLVQPGGSLRLSCAASGFSLSSYAMNWVRQAPGKGLEWIGHINAGDIAYYATWAKGRFTISRDNSKNTVYLQMNSLRAEDTAVYFCARGAGGFSTGPFKLWGQGTLVTVSS
B15: PRO1347 (37-20-B03 sc09-IF) (antibody)
chain: IQMTQSPASLSASVGDRVTITCQASQSIGTYLAWYQQKPGKPPKLLIYRAFILASGVPSRFSGSGSGTDFTLTISSLQPEDFATYYCQSNFYSDSTTIGPNAFGTGTKVTVLGGGGGSGGGGSGGGGSGGGGSEVQLVESGGGLVQPGGSLRLSCAASGFSFNSDYWIYWVRQAPGKGLEWIACIYGGSSGNTQYASWAQGRFTISRDNSKNTVYLQMNSLRAEDTAVYFCARGYVDYGGATDLWGQGTLVTVSS
B16: PRO4125 (37-20-B03 sc17 A67G_F68G) (antibody)
chain: DIQMTQSPSSLSASVGDRVTITCQASQSIGTYLAWYQQKPGKPPKLLIYRGGILASGVPSRFSGSGSGTDFTLTISSLQPEDFATYYCQSNFYSDSTTIGPNAFGTGTKVTVLGGGGGSGGGGSGGGGSGGGGSQSLVESGGGLVQPGGSLRLSCAASGFSFNSDYWISWVRQAPGKGLEWIASIYGGSSGNTQYASWAQGRFTISKDNSKNTVYLQMNSLRAEDTAVYFCARGYVDYGGATDLWGQGTLVTVSS
B17: PRO1434 (33-03-G02 Q108A_G109A) (antibody)
chain: DIQMTQSPSSLSASVGDRVTITCQASQSINDYLAWYQQKPGKAPKLLIYKASTLASGVPSRFSGSGSGTDFTLTISSLQPEDFATYYCQAAYIITDIDNVFGTGTKVTVLGGGGGSGGGGSGGGGSGGGGSQVQLQESGPGLVKPSETLSLTCKVSGFSFSSGYDMCWIRQPPGKGLEWIGCVVAGSVDITYYASWAKGRVTISVDSSKNQFSLKLSSVTAADTAVYYCARKDAYSDAFNLWGQGTLVTVSS
B18: PRO3725 (33-03-G02 Q108A_G109A A67G_F68G) (antibody)
chain: DIQMTQSPSSLSASVGDRVTITCQASQSINDYLAWYQQKPGKAPKLLIYKGGTLASGVPSRFSGSGSGTDFTLTISSLQPEDFATYYCQAAYIITDIDNVFGTGTKVTVLGGGGGSGGGGSGGGGSGGGGSQVQLQESGPGLVKPSETLSLTCKVSGFSFSSGYDMCWIRQPPGKGLEWIGCVVAGSVDITYYASWAKGRVTISVDSSKNQFSLKLSSVTAADTAVYYCARKDAYSDAFNLWGQGTLVTVSS

The target in one assay is ROR1 (UniProt Q01973). Kind of assay: SPR.
Sequence of ROR1 (Q01973 30-403): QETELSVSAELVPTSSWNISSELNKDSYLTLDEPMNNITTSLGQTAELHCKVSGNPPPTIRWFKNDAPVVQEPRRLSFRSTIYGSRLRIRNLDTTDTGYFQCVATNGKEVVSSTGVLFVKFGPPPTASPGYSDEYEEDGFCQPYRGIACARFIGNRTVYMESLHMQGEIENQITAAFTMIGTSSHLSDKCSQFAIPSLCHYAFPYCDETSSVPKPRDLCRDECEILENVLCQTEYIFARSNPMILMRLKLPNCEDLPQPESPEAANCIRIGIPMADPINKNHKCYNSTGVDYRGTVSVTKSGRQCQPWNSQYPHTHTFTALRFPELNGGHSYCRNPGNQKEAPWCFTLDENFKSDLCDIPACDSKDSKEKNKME
Molecule B1 registered a Kd of 0.336 nM. For the molecule B2, the Kd was 0.212 nM. This Kd is about 1.6-fold lower than that of the molecule before. The molecule B3 showed a Kd of 0.631 nM. In turn, B4 came in with a Kd of 0.122 nM. On the same count and under the same terms, the figure for B5 is 0.119 nM. In the case of B6, the dissociation constant Kd came out at 0.108 nM.

As for B7, the Kd came to 0.12 nM.

The next assay deals with T1, MSLN. Put plainly: SPR. (In SPR one partner is held on a chip, and binding of the other changes the refractive index at the surface.)
On to B8, for which the Kd is 1.58 nM. This counts as single-digit nanomolar. Still for that read-out and setting: the value for B9 was 0.561 nM; that for B10 was 0.172 nM; that for B11 was 0.151 nM.

In another assay the target is HSA (human, UniProt P02768). Kind of assay: SPR.
The molecule B12 had a Kd of 0.174 nM. That is a sub-nanomolar value. Same read-out and setting: the value for B13 was 0.0901 nM; that for B14 was 2.62 nM.

The target of the next assay is PD-L1 (UniProt Q9NZQ7). Kind of assay: SPR.
Sequence of PD-L1 (Q9NZQ7 19-238): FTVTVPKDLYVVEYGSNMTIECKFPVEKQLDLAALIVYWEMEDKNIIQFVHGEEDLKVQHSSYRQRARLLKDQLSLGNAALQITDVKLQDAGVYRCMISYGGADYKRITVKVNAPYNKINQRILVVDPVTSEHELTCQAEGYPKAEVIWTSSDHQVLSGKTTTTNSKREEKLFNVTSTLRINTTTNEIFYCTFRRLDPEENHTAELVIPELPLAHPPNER
B15 showed a Kd of 0.0109 nM.

For the molecule B16, the Kd was 0.196 nM.

For B17, the Kd stood at 491 nM. B18 had a dissociation constant (Kd) of 491 nM.
